To fix the notation:
B1: M11-E05 (Fab, V domains shown)
VH: EVQLLESGGGLVQPGGSLRLSCAASGFTFSWYTMGWVRQAPGKGLEWVSWIYFGGLTTYADSVKGRFTISRDNSKNTLYLQMNSLRAEDTAVYYCARLGGPLDAFDIWGQGTMVTVSS
VL: DIQMTQSPSSLSASVGDTVTITCRTSQTINNYLNWYQQRPGEAPKVLIYATHTLESGVPSRFSGSGSGTDFTLTIGSLQPEDFATYYCQQSFAFPYTFGQGTKVEIT
notes: Fab fragment (E. coli TG1); printed HC runs into the start of CH1
B2: M28-A01 (Fab, V domains shown)
VH: EVQLLESGGGLVQPGGSLRLSCAASGFTFSWYAMHWVRQAPGKGLEWVSGIYSSGGYTKYADSVKGRFTISRDNSKNTLYLQMNSLRAEDTAVYYCARDLSNGDDVFDIWGQGTMVTVSS
VL: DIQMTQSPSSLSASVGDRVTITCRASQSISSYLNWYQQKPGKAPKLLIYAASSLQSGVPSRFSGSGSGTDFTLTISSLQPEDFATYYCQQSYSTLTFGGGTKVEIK
notes: as for B1
B3: M12-E06 (Fab, V domains shown)
VH: EVQLLESGGGLVQPGGSLRLSCAASGFTFSQYKMLWVRQAPGKGLEWVSGIGPSGGLTAYADSVKGRFTISRDNSKNTLYLQMNSLRAEDTAVYYCARAPWFGELGMDVWGQGTTVTVSS
VL: DIQMTQSPSSLSASVGDRVSITCRASQSISTYLNWYQHKPGKAPTLLIYGAFSLQSGVPSRFSGSGSGTDFALTISSLQPEDFATYYCQQSHSTPPTFGQGTRVEIK
notes: as for B1
B4: M11-E06 (Fab, V domains shown)
VH: EVQLLESGGGLVQPGGSLRLSCAASGFTFSQYAMHWVRQAPGKGLEWVSSIYPSGGFTLYADSVKGRFTISRDNSKNTLYLQMNSLRAEDTAMYYCARGGWLAGGELLNWGQGTLVTVSS
VL: DIQMTQSPSSLSASIGDRVTISCRASRGIGTYLNWYQQHAGKAPKLLIRAASSLETGVPPRFSGSGSGTDFTLTISSLQSDDFATYYCQESFTNVYNFGQGTKLEIK
notes: as for B1
B5: M12-C09 (Fab, V domains shown)
VH: EVQLLESGGGLVQPGGSLRLSCAASGFTFSSYAMVWVRQAPGKGLEWVSSIGSSGGFTLYADSVKGRFTISRDNSKNTLYLQMNSLRAEDTAVYYCASMNLGGGDAFDIWGQGTMVTVSS
VL: DIQMTQSPSSLSASVGDRVTITCRASQSIGIYLNWYHQKPGKAPNLLIYGASSLQSGVPSRFSGSGSGTDFTLTISSLQPGDFATYYCQHSYSTPFTFGGGTKVEIK
notes: Fab fragment (E. coli TG1); printed HC runs into the start of CH1; tied to M12-C09 by its CDRs; also called M12-009
B6: M27-F04 (Fab, V domains shown)
VH: EVQLLESGGGLVQPGGSLRLSCAASGFTFSWYPMTWVRQAPGKGLEWVSSIGPSGGQTIYADSVKGRFTISRDNSKNTLYLQMNSLRAEDTAVYYCTTEYGDYGGGFDPWGQGTLVTVSS
VL: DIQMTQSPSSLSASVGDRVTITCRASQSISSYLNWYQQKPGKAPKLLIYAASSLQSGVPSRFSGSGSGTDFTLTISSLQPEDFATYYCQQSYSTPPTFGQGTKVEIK
notes: as for B1
B7: M27-B01 (Fab, V domains shown)
VH: EVQLLESGGGLVQPGGSLRLSCAASGFTFSDYTMWWVRQAPGKGLEWVSSISSSGGITFYADSVKGRFTISRDNSKNTLYLQMNSLRAEDTAVYYCARSADTAMGGAFDIWGQGTMVTVSS
VL: not shown
notes: as for B1
B8: M12-B04 (Fab, V domains shown)
VH: EVQLLESGGGLVQPGGSLRLSCAASGFTFSLYSMYWVRQAPGKGLEWVSRIRPSGGGTVYADSVKGRFTISRDNSKNTLYLQMNSLRAEDTAVYYCARDPLYSSGDVWGQGTTVTVSS
VL: DIQMTQSPSSLSASVGDRVTITCRASQGIRNDLGWYQHKPGKAPKLLIYAASILQSGVPSRFSGTASGTDFTLTISSLQPEDFATYFCLQDYEYPLTFGGGTKLDIK
notes: as for B1
B9: M27-G04 (Fab, V domains shown)
VH: EVQLLESGGGLVQPGGSLRLSCAASGFTFSAYYMVWVRQAPGKGLEWVSYISPSGGQTQYADSVKGRFTISRDNSKNTLYLQMNSLRAEDTAVYYCAREAISSSSFDYWGQGTLVTVSS
VL: DIQMTQSPSSLSASVGDRVTITCRASQRISYYLTWYQQKPGKVPKLLIYAASSLESGVPSRFSGSGSGTDFTLTISNLQPEDFATYYCQQAFSTPFTFGGGTKVEIK
notes: as for B1
B10: M27-F11 (Fab, V domains shown)
VH: EVQLLESGGGLVQPGGSLRLSCAASGFTFSSYHMMWVRQAPGKGLEWVSSIYPSGGATMYADSVKGRFTISRDNSKNTLYLQMNSLRAEDTAMYYCARDGYHYGDYTYFQHWGQGTLVTVSS
VL: DIQMTQSPSFLSASVGDRVTITCRASQGISSYLAWYQQKPGKAPKLLIYAASSLQSGVPSRFSGSGSGTDFTLTISSLQPEDFATYYCQQSYNTLRTFGPGTKVDLK
notes: as for B1
B11: M12-A08 (Fab, V domains shown)
VH: EVQLLESGGGLVQPGGSLRLSCAASGFTFSWYYMGWVRQAPGKGLEWVSWIVSSGGLTLYADSVKGRFTISRDNSKNTLYLQMNSLRAEDTAMYYCARTTVTTGDAFDIWGQGTMVTVSS
VL: DIQMTQSPSSLSASVGDRVTITCRASQSISRYLNWYQQKPGKAPKLLIYAASTLETGVPSRFSGSGSGTDFTLTITTLQPEDFVIYYCQQSYSTPYTFGQGTKLEIK
notes: as for B1
B12: M27-G01 (Fab, V domains shown)
VH: EVQLLESGGGLVQPGGSLRLSCAASGFTFSLYRMFWVRQAPGKGLEWVSSIWSSGGPTMYADSVKGRFTISRDNSKNTLYLQMNSLRAEDTAVYYCAREYPSTYYFDYWGQGTLVTVSS
VL: DIQMTQSPSSLSASVGDRVTITCRASQSISTYLNWYQQKPGKAPKLLIYGASSLQSGVPSRFSGSGSGTDFTLTISSLQPEDFTIYYCQQSYSDPYTFGQGTKLDIK
notes: as for B1
B13: M12-D10 (Fab, V domains shown)
VH: EVQLLESGGGLVQPGGSLRLSCAASGFTFSNYPMDWVRQAPGKGLEWVSSISSSGGWTNYADSVKGRFTISRDNSKNTLYLQMNSLRAEDTAVYYCATDTSGSYLGFDYWGQGTLVTVSS
VL: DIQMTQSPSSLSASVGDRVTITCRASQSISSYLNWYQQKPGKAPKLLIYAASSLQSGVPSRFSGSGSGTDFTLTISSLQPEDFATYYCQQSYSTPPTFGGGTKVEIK
notes: as for B1
B14: M27-A10 (Fab, V domains shown)
VH: EVQLLESGGGLVQPGGSLRLSCAASGFTFSWYRMDWVRQAPGKGLEWVSSIWPSGGLTSYADSVKGRFTISRDNSKNTLYLQMNSLRAEDTAVYYCARGWAPGGDAFDIWGQGTMVTVSS
VL: DIQMTQSPSSLSASVGDRVTITCRASQSISAYLNWYQQKPGKAPQLLMYGVGSLQSGVPSRFSGSGSGTDFTLTISSLQPEDFATYFCQQGYTTPVTFGGGTKVEIK
notes: as for B1
B15: M11-G12 (Fab, V domains shown)
VH: EVQLLESGGGLVQPGGSLRLSCAASGFTFSQYPMNWVRQAPGKGLEWVSSISSSGGFTTYADSVKGRFTISRDNSKNTLYLQMNSLRAEDTAVYYCAREEQQGGFDYWGQGTLVTVSS
VL: DIQMTQSPSSLSAFVGDRVSITCRASQTISVYVNWYQHKSGQAPKLLIYGASSLQSGVPSRFSGSGSGTDFTLTISSLQPEDFATYFCQQSYSIPFTFGGGTDVQIR
notes: as for B1
B16: M27-H10 (Fab, V domains shown)
VH: EVQLLESGGGLVQPGGSLRLSCAASGFTFSAYQMAWVRQAPGKGLEWVSVIYSSGGYTDYADSVKGRFTISRDNSKNTLYLQMNSLRAEDTAVYYCARHNWNDGAFDIWGQGTMVTVSS
VL: DIQMTQSPSSLSASVGDRVTITCRASQSISNYLNWYQQKPGKAPKFLIYAASSLQSGVPSRFSGSGSGTDFTLSISSLQPEDFATYYCQQSYSTPQTFGQGTKVEMK
notes: as for B1
B17: M27-G09 (Fab, V domains shown)
VH: EVQLLESGGGLVQPGGSLRLSCAASGFTFSEYDMAWVRQAPGKGLEWVSYIVSSGGFTSYADSVKGRFTISRDNSKNTLYLQMNSLRAEDTAVYYCTTWAGWIAAADYWGQGTLVTVSS
VL: DIQMTQSPSSVSASVGDRITITCRTRQSISNYLNWYQQKPGEPPKLLIFAASSLQSGVPSRFSGSGTGTEFTLTISSLQPEDLAIYYCQQSYDIPFTFGQGTKLEIK
notes: as for B1
B18: M12-C10 (Fab, V domains shown)
VH: EVQLLESGGGLVQPGGSLRLSCAASGFTFSDYEMHWVRQAPGKGLEWVSGISPSGGKTQYADSVKGRFTISRDNSKNTLYLQMNSLRAEDTAVYYCARDLKWGGRGSPDWYFDLWGRGTLVTVSS
VL: QSALTQPPSVSVSPGQTASITCSGDKLGEKYVSWYQQKPGQSPVVVIYQDNKRPSGIPERFSGSNSGNTATLTISGTQAVDEADYYCQAWDSYTVVFGGGSKLTVLG
notes: Fab fragment (E. coli TG1); printed HC runs into the start of CH1 and printed LC into the start of the lambda constant region (GQPK)
B19: M27-E03 (Fab, V domains shown)
VH: EVQLLESGGGLVQPGGSLRLSCAASGFTFSSYMMHWVRQAPGKGLEWVSGIYPSGGWTDYADSVKGRFTISRDNSKNTLYLQMNSLRAEDTATYYCARLVAGLDAFDIWGQGTMVTVSS
VL: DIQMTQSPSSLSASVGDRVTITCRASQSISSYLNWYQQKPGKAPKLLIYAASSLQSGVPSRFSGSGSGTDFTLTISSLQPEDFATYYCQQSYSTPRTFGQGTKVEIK
notes: as for B1
B20: M11-G09 (Fab, V domains shown)
VH: EVQLLESGGGLVQPGGSLRLSCAASGFTFSLYNMTWVRQAPGKGLEWVSYIYPSGGGTHYADSVKGRFTISRDNSKNTLYLQMNSLRAEDTAVYYCARDTGFWSADAFDIWGQGTMVTVSS
VL: DIQMTQSPSSLSASVGDRVTITCRTSQGINHYLNWYQQKPGKAPKILVFAASELQTGVPSRFSGTGSGTSYTLTITSLQPEDVATYYCQQTYTSPYTFGQGTKLEVK
notes: as for B1
B21: M28-C03 (Fab, V domains shown)
VH: EVQLLESGGGLVQPGGSLRLSCAASGFTFSYYQMGWVRQAPGKGLEWVSSIYPSGGMTDYADSVKGRFTISRDNSKNTLYLQMNSLRAEDTAVYYCTRGSPWGDDAFDIWGQGTMVTVSS
VL: DIQMTQSPSSLSASVGDRVTITCRASQSINFYLNWYQQKPGKAPKLLIYVASSLESGVPSRFSGSASGTEFTLTISSLQPEDFATYYCLQSYSAPYTFGQGTKVEIT
notes: as for B1
B22: M27-B12 (Fab, V domains shown)
VH: EVQLLESGGGLVQPGGSLRLSCAASGFTFSWYQMMWVRQAPGKGLEWVSSISPSGGITEYADSVKGRFTISRDNSKNTLYLQMNSLRAEDTAVYYCARDRSSGWYYYGMDVWGQGTTVTVSS
VL: QYELTQPPAVSVSPGQTATITCSGDKLGDEYAAWYQQKPGQSPVLVIYQDRKRPSGIPERFSGSNFGNTATLTITGTQVMDEADYYCQAWGKRNVVFGGGTKLTVL
notes: as for B1

The experiment deals with T1, human plasma kallikrein (human, UniProt P03952 20-390; P03952 391-638).
T1 construct: two disulfide-linked chains; also called pKal; human pKal
T1 sequence (P03952 20-390, chain 1 of 2): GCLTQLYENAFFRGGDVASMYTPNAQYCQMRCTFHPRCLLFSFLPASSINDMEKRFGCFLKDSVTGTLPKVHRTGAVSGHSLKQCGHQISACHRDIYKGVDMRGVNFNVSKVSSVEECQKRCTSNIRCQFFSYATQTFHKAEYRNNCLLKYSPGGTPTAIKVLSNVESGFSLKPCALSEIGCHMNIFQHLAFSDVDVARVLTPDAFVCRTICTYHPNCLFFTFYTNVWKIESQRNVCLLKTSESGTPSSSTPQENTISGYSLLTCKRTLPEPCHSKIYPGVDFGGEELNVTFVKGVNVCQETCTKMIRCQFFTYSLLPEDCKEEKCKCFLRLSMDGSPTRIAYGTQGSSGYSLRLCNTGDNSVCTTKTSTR
T1 sequence (P03952 391-638, chain 2 of 2): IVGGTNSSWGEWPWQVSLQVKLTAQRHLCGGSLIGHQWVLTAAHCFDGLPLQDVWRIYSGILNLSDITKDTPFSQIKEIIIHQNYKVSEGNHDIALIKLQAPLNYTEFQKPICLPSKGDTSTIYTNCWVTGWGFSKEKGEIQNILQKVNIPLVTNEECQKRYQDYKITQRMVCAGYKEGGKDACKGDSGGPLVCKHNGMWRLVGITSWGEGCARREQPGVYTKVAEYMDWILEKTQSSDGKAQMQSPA
As to the kind of experiment: ELISA; signal on coated biotinylated human plasma kallikrein divided by signal on streptavidin; Fab. The source says: Abbreviations used: "T/B" is the ELISA signal obtained using of the target (biotinylated plasma kallikrein) divided by the ELISA signal of the "background" (streptavidin); both of which were coated on microtiter plates. "nd" is not determined. The symbol "q" refers to the amber suppressible stop codon (TAG), which is translated as glutamine (Q) in strains of E. coli such as the TG1 cells that were used to express the Fab fragments.
For B1, the “Human pKal ELISA (T/B)” value is 41.4 T/B (target signal / background signal). For B2, the “Human pKal ELISA (T/B)” value was 19 T/B (target signal / background signal). Next, B3: 48 T/B (target signal / background signal); B4: 12.6 T/B (target signal / background signal); B5: 7 T/B (target signal / background signal).

For the molecule B6, the “Human pKal ELISA (T/B)” value is 10.5 T/B (target signal / background signal). Next, B7: 33.1 T/B (target signal / background signal). Then B8, with 18 T/B (target signal / background signal); and B9, with 4.1 T/B (target signal / background signal).

For B10, the “Human pKal ELISA (T/B)” value is 10 T/B (target signal / background signal). Next, B11: 40.4 T/B (target signal / background signal); B12: 31.4 T/B (target signal / background signal); B13: 9.9 T/B (target signal / background signal).

With B14, the “Human pKal ELISA (T/B)” value is 3.2 T/B (target signal / background signal). Then B15, with 4.9 T/B (target signal / background signal). In the case of B16, the “Human pKal ELISA (T/B)” value is 12.4 T/B (target signal / background signal). Consider B17, for which the “Human pKal ELISA (T/B)” value is 2.2 T/B (target signal / background signal). For the molecule B18, the “Human pKal ELISA (T/B)” value was 8.3 T/B (target signal / background signal).

For the molecule B19, the “Human pKal ELISA (T/B)” value was 35.9 T/B (target signal / background signal). Then B20, with 23.6 T/B (target signal / background signal); and B21, with 2.2 T/B (target signal / background signal). As to B22, the “Human pKal ELISA (T/B)” value is 2.3 T/B (target signal / background signal).

(Values after US9266964.)
